Biological target: T1, enNTS1ΔM4 (minimal methionine variant of the thermostabilized rat neurotensin receptor 1 variant enNTS1) (rat, N262^5.63R (stands in the printed letters) | K263^5.64R (stands in the printed …))
T1 construct: residues left before the receptor after HRV 3C cleavage (so in the source); enNTS1ΔM4: rat neurotensin receptor 1 thermostabilized by directed evolution (enNTS1), four of the ten methionines removed; linker, C-terminal Avi-tag and the rest of the HRV 3C site, as printed (the Avi-tag is named under tags too); In DDM micelles; 13CεH3-methionine labelled or unlabelled; also called …
T1 chain: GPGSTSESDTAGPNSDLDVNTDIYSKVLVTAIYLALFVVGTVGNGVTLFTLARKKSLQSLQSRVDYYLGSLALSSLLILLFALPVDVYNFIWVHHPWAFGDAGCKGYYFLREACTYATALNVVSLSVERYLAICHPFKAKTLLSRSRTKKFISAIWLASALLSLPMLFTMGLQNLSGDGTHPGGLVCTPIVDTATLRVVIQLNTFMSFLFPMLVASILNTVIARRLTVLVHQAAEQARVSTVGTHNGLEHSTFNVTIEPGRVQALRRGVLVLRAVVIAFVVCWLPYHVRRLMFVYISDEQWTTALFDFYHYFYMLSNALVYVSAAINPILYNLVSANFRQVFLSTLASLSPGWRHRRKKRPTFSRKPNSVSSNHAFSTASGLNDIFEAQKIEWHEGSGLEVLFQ
Assay: NMR (1H-13C HMQC spectra); 66 μM [13CεH3-methionine]-enNTS1ΔM4 with 500 μM ML314 (no NT8-13), 130 μM PIP2 and 2.3x molar equivalents βArr1-3A, 298 K
Settings: both partners purified

binding result: binds
B1: βArr1-3A (pre-activated cysteine-free human β-arrestin-1, I386A/V387A/F388A), tags removed (natural protein)
chain: GPSGDKGTRVFKKASPNGKLTVYLGKRDFVDHIDLVDPVDGVVLVDPEYLKERRVYVTLTVAFRYGREDLDVLGLTFRKDLFVANVQSFPPAPEDKKPLTRLQERLIKKLGEHAYPFTFEIPPNLPSSVTLQPGPEDTGKALGVDYEVKAFVAENLEEKIHKRNSVRLVIRKVQYAPERPGPQPTAETTRQFLMSDKPLHLEASLDKEIYYHGEPISVNVHVTNNTNKTVKKIKISVRQYADIVLFNTAQYKVPVAMEEADDTVAPSSTFSKVYTLTPFLANNREKRGLALDGKLKHEDTNLASSTLLREGANREILGIIVSYKVKVKLVVSRGGLLGDLASSDVAVELPFTLMHPKPKEEPPHREVPENETPVDTNLIELDTNDDDAAAEDFARQRLKGMKDDKEEEEDGTGSPQLNNR
notes: residues left after HRV 3C cleavage (so in the source); human β-arrestin-1, cysteine-free, 3A mutant; Used in the NMR experiments, unlabelled or [U-15N,13C,2H]-labelled; also called hβArr1-3A; βArr-3A; source: E. coli BL21(DE3), purified (Ni-NTA, HRV 3C cleavage, HiTrap Q, SEC); not shown: His6, N-terminal, cleaved; Protein C tag, N-terminal, cleaved

— publication PMC10247727, “Stabilization of pre-existing neurotensin receptor conformational states by β-arrestin-1 and the biased allosteric modulator ML314” (Nature Communications, 2023)
